Holding throughout (assay): cryo-EM structure; replisome assembled at room temperature from 0.7 uM CMG, forked DNA and ATPγS, then 1.5 molar excess of Polε, Ctf4, Tof1-Csm3; 100 mM KCl, 25 mM HEPES pH 7.6, 4 mM MgCl2, 4 mM ATPγS; 10-30% glycerol gradient with glutaraldehyde fixation; States I-VI by 3D classification
Settings in all cases: both partners purified

Test [1] addresses T1, Pol2 (subunit of Polε in the replisome) (yeast, UniProt P21951 1-2222).
T1 construct: Pol2, yeast, catalytic subunit of Polε; Chain of m2 as it stands in the replisome structure; the catalytic NTD is flexible and not resolved; also called Pol2-CTD; Pol2-ZF2; source: yeast strain yAJ2, purified as part of Polε (calmodulin resin, TEV elution, Mono Q, Superose 6); not shown: CBP, N-terminal, cleaved

In a further test the target is T2, Tof1-Csm3 (yeast, UniProt P53840 1-1238; Q04659 1-317).
T2 construct: Tof1, yeast; Csm3, yeast; Purified beforehand as one complex; also called Tof1 and Csm3; components of the fork protection complex (FPC); source: yeast strain yAE48, galactose-induced, purified (calmodulin resin, TEV elution, Mono Q, Superose 6); not shown: CBP, N-terminal, cleaved

Test [2] deals with T3, Dpb2 (subunit of Polε in the replisome) (yeast, UniProt P24482 1-689).
T3 construct: Dpb2, yeast, subunit of Polε; NTD 12-98, linker 99-156, PDE domain 157-689 as printed; Chain of m2 as it stands in the replisome structure; also called Dpb2-NTD; Dpb2-OB; source: yeast strain yAJ2, purified as part of Polε (calmodulin resin, TEV elution, Mono Q, Superose 6)
T3 sequence: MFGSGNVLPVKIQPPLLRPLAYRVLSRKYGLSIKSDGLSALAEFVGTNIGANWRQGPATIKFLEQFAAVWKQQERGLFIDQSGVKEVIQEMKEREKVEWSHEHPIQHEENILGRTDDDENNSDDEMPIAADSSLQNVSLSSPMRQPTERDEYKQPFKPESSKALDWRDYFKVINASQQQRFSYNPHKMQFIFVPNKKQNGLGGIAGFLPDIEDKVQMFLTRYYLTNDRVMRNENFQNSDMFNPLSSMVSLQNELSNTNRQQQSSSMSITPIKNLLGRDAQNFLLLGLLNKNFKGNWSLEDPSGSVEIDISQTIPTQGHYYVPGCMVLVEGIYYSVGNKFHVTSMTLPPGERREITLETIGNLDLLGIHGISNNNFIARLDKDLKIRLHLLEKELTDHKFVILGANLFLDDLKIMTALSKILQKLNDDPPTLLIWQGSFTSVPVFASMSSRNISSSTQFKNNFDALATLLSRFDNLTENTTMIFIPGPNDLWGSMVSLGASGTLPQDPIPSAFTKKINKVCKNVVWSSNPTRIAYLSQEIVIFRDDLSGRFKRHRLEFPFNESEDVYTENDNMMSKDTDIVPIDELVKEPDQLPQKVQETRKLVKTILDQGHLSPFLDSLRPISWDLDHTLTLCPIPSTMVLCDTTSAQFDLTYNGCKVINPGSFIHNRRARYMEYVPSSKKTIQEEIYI

The results in this text go back to paper PMC10511561, “Synergism between CMG helicase and leading strand DNA polymerase at replication fork” (Nature Communications, 2023).

T1 sequence (P21951 whole entry): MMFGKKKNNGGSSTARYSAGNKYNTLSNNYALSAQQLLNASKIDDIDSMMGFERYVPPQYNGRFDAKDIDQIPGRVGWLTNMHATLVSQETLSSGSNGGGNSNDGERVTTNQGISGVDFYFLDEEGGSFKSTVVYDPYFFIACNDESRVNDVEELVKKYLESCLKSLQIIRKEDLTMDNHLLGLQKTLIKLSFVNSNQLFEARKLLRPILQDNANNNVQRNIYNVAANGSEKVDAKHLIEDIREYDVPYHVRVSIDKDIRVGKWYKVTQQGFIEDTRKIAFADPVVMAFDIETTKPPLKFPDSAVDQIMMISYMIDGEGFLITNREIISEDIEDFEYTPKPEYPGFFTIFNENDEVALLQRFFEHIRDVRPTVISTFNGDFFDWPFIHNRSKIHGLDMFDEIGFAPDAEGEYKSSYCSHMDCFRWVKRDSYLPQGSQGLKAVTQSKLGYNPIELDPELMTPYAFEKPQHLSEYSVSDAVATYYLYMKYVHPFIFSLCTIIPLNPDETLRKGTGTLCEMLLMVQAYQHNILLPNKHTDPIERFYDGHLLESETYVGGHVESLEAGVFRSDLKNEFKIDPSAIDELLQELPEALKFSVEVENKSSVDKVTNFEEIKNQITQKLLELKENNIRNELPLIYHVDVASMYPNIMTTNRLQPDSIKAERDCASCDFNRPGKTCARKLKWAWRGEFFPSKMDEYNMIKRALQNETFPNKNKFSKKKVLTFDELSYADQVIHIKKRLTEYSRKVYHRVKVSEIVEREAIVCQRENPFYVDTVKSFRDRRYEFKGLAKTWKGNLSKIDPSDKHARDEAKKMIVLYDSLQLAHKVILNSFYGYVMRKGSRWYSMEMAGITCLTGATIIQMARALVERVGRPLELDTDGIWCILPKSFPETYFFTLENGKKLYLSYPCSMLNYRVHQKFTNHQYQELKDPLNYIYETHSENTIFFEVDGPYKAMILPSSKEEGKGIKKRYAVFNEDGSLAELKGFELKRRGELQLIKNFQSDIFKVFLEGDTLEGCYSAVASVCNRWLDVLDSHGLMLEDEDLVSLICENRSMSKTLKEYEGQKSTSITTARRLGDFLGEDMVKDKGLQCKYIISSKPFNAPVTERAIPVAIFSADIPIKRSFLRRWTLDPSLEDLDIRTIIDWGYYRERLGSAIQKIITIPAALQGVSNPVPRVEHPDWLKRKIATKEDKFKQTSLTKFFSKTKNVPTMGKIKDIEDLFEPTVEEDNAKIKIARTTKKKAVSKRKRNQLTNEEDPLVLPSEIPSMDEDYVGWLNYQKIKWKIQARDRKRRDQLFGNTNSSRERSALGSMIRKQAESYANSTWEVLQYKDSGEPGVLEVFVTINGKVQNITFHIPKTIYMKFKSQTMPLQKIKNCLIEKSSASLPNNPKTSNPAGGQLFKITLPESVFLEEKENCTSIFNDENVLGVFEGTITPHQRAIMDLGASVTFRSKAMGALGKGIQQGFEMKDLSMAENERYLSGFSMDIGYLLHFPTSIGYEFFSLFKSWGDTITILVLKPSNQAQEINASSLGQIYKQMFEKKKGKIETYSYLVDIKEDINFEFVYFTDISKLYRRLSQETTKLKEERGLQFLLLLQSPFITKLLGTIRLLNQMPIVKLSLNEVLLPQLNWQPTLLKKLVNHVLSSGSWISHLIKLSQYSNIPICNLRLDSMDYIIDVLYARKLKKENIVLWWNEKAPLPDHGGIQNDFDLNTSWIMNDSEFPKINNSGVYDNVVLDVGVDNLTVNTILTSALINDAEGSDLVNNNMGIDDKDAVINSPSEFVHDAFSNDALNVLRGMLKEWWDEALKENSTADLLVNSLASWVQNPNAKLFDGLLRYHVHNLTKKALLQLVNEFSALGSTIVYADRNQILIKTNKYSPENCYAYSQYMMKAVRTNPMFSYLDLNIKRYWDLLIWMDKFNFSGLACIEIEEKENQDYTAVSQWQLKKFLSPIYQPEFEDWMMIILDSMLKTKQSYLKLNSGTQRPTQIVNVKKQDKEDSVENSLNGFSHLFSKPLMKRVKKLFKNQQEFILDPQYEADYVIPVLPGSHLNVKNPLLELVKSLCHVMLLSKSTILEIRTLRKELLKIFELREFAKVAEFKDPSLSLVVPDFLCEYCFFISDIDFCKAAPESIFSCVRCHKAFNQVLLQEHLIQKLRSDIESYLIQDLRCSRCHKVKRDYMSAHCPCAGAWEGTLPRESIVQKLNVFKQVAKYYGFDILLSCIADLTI
T2 sequence (P53840 whole entry, chain 1 of 2): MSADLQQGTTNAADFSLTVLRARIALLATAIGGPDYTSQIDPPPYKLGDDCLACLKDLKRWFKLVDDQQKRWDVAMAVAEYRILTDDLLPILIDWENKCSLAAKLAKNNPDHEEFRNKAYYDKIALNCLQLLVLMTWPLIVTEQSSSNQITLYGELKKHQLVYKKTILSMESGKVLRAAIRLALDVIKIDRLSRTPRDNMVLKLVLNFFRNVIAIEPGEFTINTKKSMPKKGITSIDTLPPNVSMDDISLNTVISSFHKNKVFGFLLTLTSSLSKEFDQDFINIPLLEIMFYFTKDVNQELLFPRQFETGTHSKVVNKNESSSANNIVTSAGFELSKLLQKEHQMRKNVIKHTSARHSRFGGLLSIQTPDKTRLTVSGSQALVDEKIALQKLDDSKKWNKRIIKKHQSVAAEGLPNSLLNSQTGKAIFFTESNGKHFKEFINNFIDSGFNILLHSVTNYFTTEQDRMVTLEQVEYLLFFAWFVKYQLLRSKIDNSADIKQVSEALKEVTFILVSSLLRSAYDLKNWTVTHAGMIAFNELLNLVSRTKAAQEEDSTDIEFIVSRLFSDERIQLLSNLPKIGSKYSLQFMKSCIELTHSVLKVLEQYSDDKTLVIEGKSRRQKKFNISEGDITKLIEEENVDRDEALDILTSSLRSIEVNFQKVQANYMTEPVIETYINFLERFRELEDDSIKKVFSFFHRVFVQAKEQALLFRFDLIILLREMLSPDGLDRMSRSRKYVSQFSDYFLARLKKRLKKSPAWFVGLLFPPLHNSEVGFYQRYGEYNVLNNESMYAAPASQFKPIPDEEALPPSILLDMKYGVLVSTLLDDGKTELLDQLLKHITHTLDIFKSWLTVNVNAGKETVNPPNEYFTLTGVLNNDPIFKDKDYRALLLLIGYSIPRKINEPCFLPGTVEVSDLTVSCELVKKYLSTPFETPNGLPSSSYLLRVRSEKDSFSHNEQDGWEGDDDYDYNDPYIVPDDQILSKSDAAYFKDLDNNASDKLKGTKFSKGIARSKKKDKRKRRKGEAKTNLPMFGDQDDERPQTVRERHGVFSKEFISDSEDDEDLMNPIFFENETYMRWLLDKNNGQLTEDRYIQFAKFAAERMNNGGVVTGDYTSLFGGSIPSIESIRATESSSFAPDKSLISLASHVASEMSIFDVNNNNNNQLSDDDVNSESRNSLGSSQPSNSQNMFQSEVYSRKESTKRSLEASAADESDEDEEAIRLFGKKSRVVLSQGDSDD
T2 sequence (Q04659 whole entry, chain 2 of 2): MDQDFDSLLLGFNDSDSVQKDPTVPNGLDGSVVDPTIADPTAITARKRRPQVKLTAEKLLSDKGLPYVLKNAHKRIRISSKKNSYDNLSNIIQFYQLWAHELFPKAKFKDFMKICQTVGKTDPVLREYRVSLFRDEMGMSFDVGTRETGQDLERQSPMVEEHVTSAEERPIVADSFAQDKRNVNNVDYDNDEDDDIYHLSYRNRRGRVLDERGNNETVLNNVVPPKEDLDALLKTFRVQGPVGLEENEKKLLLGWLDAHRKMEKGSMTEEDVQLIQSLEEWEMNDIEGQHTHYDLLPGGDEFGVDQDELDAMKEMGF

B1: Mcm2 (subunit of CMG) (natural protein, yeast)
chain: MSDNRRRRREEDDSDSENELPPSSPQQHFRGGMNPVSSPIGSPDMINPEGDDNEVDDVPDIDEVEEQMNEVDLMDDNMYEDYAADHNRDRYDPDQVDDREQQELSLSERRRIDAQLNERDRLLRNVAYIDDEDEEQEGAAQLDEMGLPVQRRRRRRQYEDLENSDDDLLSDMDIDPLREELTLESLSNVKANSYSEWITQPNVSRTIARELKSFLLEYTDETGRSVYGARIRTLGEMNSESLEVNYRHLAESKAILALFLAKCPEEMLKIFDLVAMEATELHYPDYARIHSEIHVRISDFPTIYSLRELRESNLSSLVRVTGVVTRRTGVFPQLKYVKFNCLKCGSILGPFFQDSNEEIRISFCTNCKSKGPFRVNGEKTVYRNYQRVTLQEAPGTVPPGRLPRHREVILLADLVDVSKPGEEVEVTGIYKNNYDGNLNAKNGFPVFATIIEANSIKRREGNTANEGEEGLDVFSWTEEEEREFRKISRDRGIIDKIISSMAPSIYGHRDIKTAVACSLFGGVPKNVNGKHSIRGDINVLLLGDPGTAKSQILKYVEKTAHRAVFATGQGASAVGLTASVRKDPITKEWTLEGGALVLADKGVCLIDEFDKMNDQDRTSIHEAMEQQSISISKAGIVTTLQARCSIIAAANPNGGRYNSTLPLAQNVSLTEPILSRFDILCVVRDLVDEEADERLATFVVDSHVRSHPENDEDREGEELKNNGESAIEQGEDEINEQLNARQRRLQRQRKKEEEISPIPQELLMKYIHYARTKIYPKLHQMDMDKVSRVYADLRRESISTGSFPITVRHLESILRIAESFAKMRLSEFVSSYDLDRAIKVVVDSFVDAQKVSVRRQLRRSFAIYTLGH
notes: Mcm2, yeast; Chain of m1 as it stands in the replisome structure; source: yeast strain yJCZ2, purified as part of CMG (anti-FLAG M2 resin, Mono Q, Superose 6)
For B1, in test [1], the binding result was “binds”.

B2: Cdc45 (subunit of CMG) (natural protein, yeast)
chain: MYYGISQFSEAYNKILRNSSSHSSCQLVIFVSCLNIDALCATKMLSLLFKKQLVQSQIVPIFGYSELRRHYSQLDDNINSLLLVGFGGVIDLEAFLEIDPQEYVIDTDEKSGEQSFRRDIYVLDAHRPWNLDNIFGSQIIQCFDDGTVDDTLGEQKEAYYKLLELDEESGDDELSGDENDNNGGDDEATDADEVTDEDEEDEDETISNKRGNSSIGPNDLSKRKQRKKQIHEYEGVLEEYYSQGTTVVNSISAQIYSLLSAIGETNLSNLWLNILGTTSLDIAYAQVYNRLYPLLQDEVKRLTPSSRNSVKTPDTLTLNIQPDYYLFLLRHSSLYDSFYYSNYVNAKLSLWNENGKKRLHKMFARMGIPLSTAQETWLYMDHSIKRELGIIFDKNLDRYGLQDIIRDGFVRTLGYRGSISASEFVEALTALLEVGNSTDKDSVKINNDNNDDTDGEEEEDNSAQKLTNLRKRWVSNFWLSWDALDDRKVELLNRGIQLAQDLQRAIFNTGVAILEKKLIKHLRIYRLCVLQDGPDLDLYRNPLTLLRLGNWLIECCAESEDKQLLPMVLASIDENTDTYLVAGLTPRYPRGLDTIHTKKPILNNFSMAFQQITAETDAKVRIDNFESSIIEIRREDLSPFLEKLTLSGLL
notes: Cdc45, yeast; Chain of m1 as it stands in the replisome structure; source: yeast strain yJCZ2, purified as part of CMG (anti-FLAG M2 resin, Mono Q, Superose 6)
On to B2, for which the binding result in test [1] is given as “binds”.

B3: Mcm4 (subunit of CMG) (natural protein, yeast)
chain: MSQQSSSPTKEDNNSSSPVVPNPDSVPPQLSSPALFYSSSSSQGDIYGRNNSQNLSQGEGNIRAAIGSSPLNFPSSSQRQNSDVFQSQGRQGRIRSSASASGRSRYHSDLRSDRALPTSSSSLGRNGQNRVHMRRNDIHTSDLSSPRRIVDFDTRSGVNTLDTSSSSAPPSEASEPLRIIWGTNVSIQECTTNFRNFLMSFKYKFRKILDEREEFINNTTDEELYYIKQLNEMRELGTSNLNLDARNLLAYKQTEDLYHQLLNYPQEVISIMDQTIKDCMVSLIVDNNLDYDLDEIETKFYKVRPYNVGSCKGMRELNPNDIDKLINLKGLVLRSTPVIPDMKVAFFKCNVCDHTMAVEIDRGVIQEPARCERIDCNEPNSMSLIHNRCSFADKQVIKLQETPDFVPDGQTPHSISLCVYDELVDSCRAGDRIEVTGTFRSIPIRANSRQRVLKSLYKTYVDVVHVKKVSDKRLDVDTSTIEQELMQNKVDHNEVEEVRQITDQDLAKIREVAAREDLYSLLARSIAPSIYELEDVKKGILLQLFGGTNKTFTKGGRYRGDINILLCGDPSTSKSQILQYVHKITPRGVYTSGKGSSAVGLTAYITRDVDTKQLVLESGALVLSDGGVCCIDEFDKMSDSTRSVLHEVMEQQTISIAKAGIITTLNARSSILASANPIGSRYNPNLPVTENIDLPPPLLSRFDLVYLVLDKVDEKNDRELAKHLTNLYLEDKPEHISQDDVLPVEFLTMYISYAKEHIHPIITEAAKTELVRAYVGMRKMGDDSRSDEKRITATTRQLESMIRLAEAHAKMKLKNVVELEDVQEAVRLIRSAIKDYATDPKTGKIDMNLVQTGKSVIQRKLQEDLSREIMNVLKDQASDSMSFNELIKQINEHSQDRVESSDIQEALSRLQQEDKVIVLGEGVRRSVRLNNRV
notes: Mcm4, yeast; Chain of m1 as it stands in the replisome structure; source: yeast strain yJCZ2, purified as part of CMG (anti-FLAG M2 resin, Mono Q, Superose 6)
As for B3, the binding result with Tof1-Csm3 is reported as “binds”.

B4: Psf1 (subunit of GINS in CMG) (natural protein, yeast)
chain: MYGDLGNKLVLEAKRTKQLYARSNQDVNLPMYHEDIIRNILKEVSNLRKNTEYLKEQQQLGMLDDKVAKCQYFVTLLCMERNKRCLLAYQRLRTDILDSMAWNNNGLDLMSSITFSQQDTNNLSHQEQEYLKEYCDLITDLKSGDLVDIDLSGSLVPPSDVFIDVRVLKDAGEIQTEYGVFNLIKDSQFFVRQSDVERLIQQGYLQKI
notes: Psf1, yeast, subunit of GINS; Chain of m1 as it stands in the replisome structure; also called Psf1 B domain; Psf1-B domain; source: yeast strain yJCZ2, purified as part of CMG (anti-FLAG M2 resin, Mono Q, Superose 6)
For B4, the binding result in test [2] was “binds”.

B5: Mcm6 (subunit of CMG) (natural protein, yeast)
chain: MSSPFPADTPSSNRPSNSSPPPSSIGAGFGSSSGLDSQIGSRLHFPSSSQPHVSNSQTGPFVNDSTQFSSQRLQTDGSATNDMEGNEPARSFKSRALNHVKKVDDVTGEKVREAFEQFLEDFSVQSTDTGEVEKVYRAQIEFMKIYDLNTIYIDYQHLSMRENGALAMAISEQYYRFLPFLQKGLRRVVRKYAPELLNTSDSLKRSEGDEGQADEDEQQDDDMNGSSLPRDSGSSAAPGNGTSAMATRSITTSTSPEQTERVFQISFFNLPTVHRIRDIRSEKIGSLLSISGTVTRTSEVRPELYKASFTCDMCRAIVDNVEQSFKYTEPTFCPNPSCENRAFWTLNVTRSRFLDWQKVRIQENANEIPTGSMPRTLDVILRGDSVERAKPGDRCKFTGVEIVVPDVTQLGLPGVKPSSTLDTRGISKTTEGLNSGVTGLRSLGVRDLTYKISFLACHVISIGSNIGASSPDANSNNRETELQMAANLQANNVYQDNERDQEVFLNSLSSDEINELKEMVKDEHIYDKLVRSIAPAVFGHEAVKKGILLQMLGGVHKSTVEGIKLRGDINICVVGDPSTSKSQFLKYVVGFAPRSVYTSGKASSAAGLTAAVVRDEEGGDYTIEAGALMLADNGICCIDEFDKMDISDQVAIHEAMEQQTISIAKAGIHATLNARTSILAAANPVGGRYNRKLSLRGNLNMTAPIMSRFDLFFVILDDCNEKIDTELASHIVDLHMKRDEAIEPPFSAEQLRRYIKYARTFKPILTKEARSYLVEKYKELRKDDAQGFSRSSYRITVRQLESMIRLSEAIARANCVDEITPSFIAEAYDLLRQSIIRVDVDDVEMDEEFDNIESQSHAASGNNDDNDDGTGSGVITSEPPADIEEGQSEATARPGTSEKKKTTVTYDKYVSMMNMIVRKIAEVDREGAEELTAVDIVDWYLLQKENDLGSLAEYWEERRLAFKVIKRLVKDRILMEIHGTRHNLRDLENEENENNKTVYVIHPNCEVLDQLEPQDSS
notes: Mcm6, yeast; Chain of m1 as it stands in the replisome structure; source: yeast strain yJCZ2, purified as part of CMG (anti-FLAG M2 resin, Mono Q, Superose 6)
Turning to B5, the binding result in the test with Tof1-Csm3 was “binds”.

B6: Mcm5 (subunit of CMG) (natural protein, yeast)
chain: MSFDRPEIYSAPVLQGESPNDDDNTEIIKSFKNFILEFRLDSQFIYRDQLRNNILVKNYSLTVNMEHLIGYNEDIYKKLSDEPSDIIPLFETAITQVAKRISILSRAQSANNNDKDPENTSMDTDSLLLNSLPTFQLILNSNANQIPLRDLDSEHVSKIVRLSGIIISTSVLSSRATYLSIMCRNCRHTTSITINNFNSITGNTVSLPRSCLSTIESESSMANESNIGDESTKKNCGPDPYIIIHESSKFIDQQFLKLQEIPELVPVGEMPRNLTMTCDRYLTNKVIPGTRVTIVGIYSIYNSKNGAGSGRSGGGNGGSGVAIRTPYIKILGIQSDVETSSIWNSVTMFTEEEEEEFLQLSRNPKLYEILTNSIAPSIFGNEDIKKAIVCLLMGGSKKILPDGMRLRGDINVLLLGDPGTAKSQLLKFVEKVSPIAVYTSGKGSSAAGLTASVQRDPMTREFYLEGGAMVLADGGVVCIDEFDKMRDEDRVAIHEAMEQQTISIAKAGITTVLNSRTSVLAAANPIYGRYDDLKSPGDNIDFQTTILSRFDMIFIVKDDHNEERDISIANHVINIHTGNANAMQNQQEENGSEISIEKMKRYITYCRLKCAPRLSPQAAEKLSSNFVTIRKQLLINELESTERSSIPITIRQLEAIIRITESLAKLELSPIAQERHVDEAIRLFQASTMDAASQDPIGGLNQASGTSLSEIRRFEQELKRRLPIGWSTSYQTLRREFVDTHRFSQLALDKALYALEKHETIQLRHQGQNIYRSGV
notes: Mcm5, yeast; Chain of m1 as it stands in the replisome structure; also called Mcm5-CTD; Mcm5-WHD; source: yeast strain yJCZ2, purified as part of CMG (anti-FLAG M2 resin, Mono Q, Superose 6)
Turning to B6, the binding result in test [1] was “binds”.
